# Patent US20230074657A1
# Biological target: Tag1-LAG3 protein (UniProt P18627)
# Assay: HTRF blocking assay (Cisbio kit): Tag1-LAG3 with Tag2-FGL1 and antibody
# Sequence of Tag1-LAG3 protein (P18627 23-450): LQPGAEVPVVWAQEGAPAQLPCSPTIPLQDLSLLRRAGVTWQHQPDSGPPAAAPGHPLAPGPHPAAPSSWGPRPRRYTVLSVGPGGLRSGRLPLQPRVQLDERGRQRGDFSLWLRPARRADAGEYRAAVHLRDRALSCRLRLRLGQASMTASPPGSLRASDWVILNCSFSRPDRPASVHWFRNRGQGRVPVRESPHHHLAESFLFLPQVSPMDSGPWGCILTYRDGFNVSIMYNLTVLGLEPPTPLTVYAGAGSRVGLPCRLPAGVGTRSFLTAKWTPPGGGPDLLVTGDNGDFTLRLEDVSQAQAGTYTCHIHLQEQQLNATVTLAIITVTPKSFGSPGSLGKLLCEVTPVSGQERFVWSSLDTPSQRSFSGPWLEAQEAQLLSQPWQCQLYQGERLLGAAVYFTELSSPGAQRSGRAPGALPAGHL
substance,measurement,value
Positive control (ab40465) (antibody),IC50 (read off the curve),2 µg/mL
